Substrate: Nc1ncnc2c1ncn2[C@@H]1O[C@H](COP(=O)(O)OP(=O)(O)OP(=O)(O)O)[C@@H](O)[C@H]1O
Experiment: ATP:PPi exchange steady-state kinetics
Format: biochemical, Pseudomonas aeruginosa
Details: Mg2+ active region of the catalytic domain formed by the three structural motifs

B1: Aspartyl-tRNA synthetase (AspRS) (Pseudomonas aeruginosa PAO1) (protein)
chain: MMRSHYCGQLNESLDGQEVTLCGWVHRRRDHGGVIFLDVRDREGLAQVVFDPDRAETFAKADRVRSEFVVKITGKVRLRPEGARNPNMASGSIEVLGYELEVLNQAETPPFPLDEYSDVGEETRLRYRFIDLRRPEMAAKLKLRARITSSIRRYLDDNGFLDVETPILGRPTPEGARDYLVPSRTYPGHFFALPQSPQLFKQLLMVAGFDRYYQIAKCFRDEDLRADRQPEFTQIDIETSFLDESDIIGITEKMVRQLFKEVLDVEFDEFPHMPFEEAMRRYGSDKPDLRIPLELVDVADQLKEVEFKVFSGPANDPKGRVAALRVPGAASMPRSQIDDYTKFVGIYGAKGLAYIKVNERAKGVEGLQSPIVKFIPEANLNVILDRVGAVDGDIVFFGADKAKIVCDALGALRIKVGHDLKLLTREWAPMWVVDFPMFEENDDGSLSALHHPFTSPKCTPAELEANPGAALSRAYDMVLNGTELGGGSIRIHDKSMQQAVFRVLGIDEAEQEEKFGFLLDALKYGAPPHGGLAFGLDRLVMLMTGASSIREVIAFPKTQSAGDVMTQAPGSVDGKALRELHIRLREQPKAE
- Km: 495 µM

— PMC5820116 (SLAS discovery : advancing life sciences R & D, 2017)
